{"source": "paper PMC6893859", "about": "(Regulatory toxicology and pharmacology : RTP, 2018)", "origin": "cited, not measured here", "key": {"patients": {"system": "patients", "conditions": "human, in vivo"}, "humans": {"system": "humans", "conditions": "human, in vivo"}}, "data": [{"substance": "CER-001: complex between recombinant human ApoA-I and dipalmitoyl phosphatidylcholine and sphingomyelin", "values": [{"measurement": "safety and tolerability", "setting": "patients", "result": "safe and well tolerated"}]}, {"substance": "CSL-112: reformulated reconstituted and purified ApoA1 (from CSL-111)", "values": [{"measurement": "tolerability", "setting": "humans", "result": "well tolerated"}]}]}
